Test results reported in patent US20230295327A1 (KANAPH THERAPEUTICS, published 2023).

T1: human CD20 on Raji and Ramos cells (human, UniProt P11836 1-297)
T1 sequence (looked up): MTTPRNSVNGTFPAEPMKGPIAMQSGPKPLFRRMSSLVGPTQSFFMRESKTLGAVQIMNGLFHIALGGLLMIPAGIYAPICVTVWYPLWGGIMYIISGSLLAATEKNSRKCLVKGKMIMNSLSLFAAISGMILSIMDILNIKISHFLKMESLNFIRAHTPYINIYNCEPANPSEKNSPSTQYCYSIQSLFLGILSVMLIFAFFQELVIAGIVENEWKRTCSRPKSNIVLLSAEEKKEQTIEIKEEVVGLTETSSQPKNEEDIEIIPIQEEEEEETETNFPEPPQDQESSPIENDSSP


Assays:
[1] = target: IL-12 receptor of human T cells (human, UniProt P42701 24-662; Q99665 24-862); experiment: cell-based or functional assay
IL-12 receptor of human T cells, sequence (Q99665 24-862, chain 2 of 2, other chains not shown): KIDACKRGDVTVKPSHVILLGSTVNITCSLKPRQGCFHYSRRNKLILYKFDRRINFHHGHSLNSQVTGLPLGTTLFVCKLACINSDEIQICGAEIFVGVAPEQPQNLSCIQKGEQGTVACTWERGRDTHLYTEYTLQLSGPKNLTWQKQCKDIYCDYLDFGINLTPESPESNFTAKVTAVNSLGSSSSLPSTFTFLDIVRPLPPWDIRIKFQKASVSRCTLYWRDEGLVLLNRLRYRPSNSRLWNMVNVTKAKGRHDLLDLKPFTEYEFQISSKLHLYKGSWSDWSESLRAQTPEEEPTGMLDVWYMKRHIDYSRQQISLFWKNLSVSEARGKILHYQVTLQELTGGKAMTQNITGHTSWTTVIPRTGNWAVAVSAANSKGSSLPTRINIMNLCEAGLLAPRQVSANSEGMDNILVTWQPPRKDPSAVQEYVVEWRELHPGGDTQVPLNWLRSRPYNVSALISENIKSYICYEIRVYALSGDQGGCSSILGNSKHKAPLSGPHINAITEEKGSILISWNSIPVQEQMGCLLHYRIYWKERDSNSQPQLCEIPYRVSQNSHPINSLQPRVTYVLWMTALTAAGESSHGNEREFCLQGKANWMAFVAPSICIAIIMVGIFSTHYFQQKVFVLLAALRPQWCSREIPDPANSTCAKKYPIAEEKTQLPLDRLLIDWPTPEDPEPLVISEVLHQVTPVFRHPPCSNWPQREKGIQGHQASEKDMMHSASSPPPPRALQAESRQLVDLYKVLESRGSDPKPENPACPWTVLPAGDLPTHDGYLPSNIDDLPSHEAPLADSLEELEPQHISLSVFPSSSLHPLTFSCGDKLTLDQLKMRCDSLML

[2] = target: T1, human CD20 on Raji and Ramos cells; experiment: cell-based or functional assay

| Binder | p-STAT4 (Tyr693) AlphaLISA in activated human T cells, EC50 [1] [ng/mL] | ADCC Reporter Bioassay on Raji target cells, 50% effective concentration (EC50) [2] [ng/mL] |
| --- | --- | --- |
| T2.01 (anti-hu CD20/hu IL-12, hu IgG1) (bispecific antibody) heavy: not shown light: QIVLSQSPAILSASPGEKVTMTCRASSSVSYIHWFQQKPGSSPKPWIYATSNLASGVPVRFSGSGSGTSYSLTISRVEAEDAATYYCQQWTSNPPTFGGGTKLEIKRTVAAPSVFIFPPSDEQLKSGTASVVCLLNNFYPREAKVQWKVDNALQSGNSQESVTEQDSKDSTYSLSSTLTLSKADYEKHKVYACEVTHQGLSSPVTKSFNRGEC not shown | 0.555 | – |
| T2.02 (anti-hu CD20/hu IL-12 mut1, hu IgG1) (bispecific antibody) heavy: not shown light: QIVLSQSPAILSASPGEKVTMTCRASSSVSYIHWFQQKPGSSPKPWIYATSNLASGVPVRFSGSGSGTSYSLTISRVEAEDAATYYCQQWTSNPPTFGGGTKLEIKRTVAAPSVFIFPPSDEQLKSGTASVVCLLNNFYPREAKVQWKVDNALQSGNSQESVTEQDSKDSTYSLSSTLTLSKADYEKHKVYACEVTHQGLSSPVTKSFNRGEC not shown | 1.55 | – |
| Rituximab (anti-hu CD20 monoclonal antibody) (antibody, human IgG1, kappa, V domains shown) VH: QVQLQQPGAELVKPGASVKMSCKASGYTFTSYNMHWVKQTPGRGLEWIGAIYPGNGDTSYNQKFKGKATLTADKSSSTAYMQLSSLTSEDSAVYYCARSTYYGGDWYFNVWGAGTTVTVSA VL: QIVLSQSPAILSASPGEKVTMTCRASSSVSYIHWFQQKPGSSPKPWIYATSNLASGVPVRFSGSGSGTSYSLTISRVEAEDAATYYCQQWTSNPPTFGGGTKLEIKR | – | 31100 |
